Reference: publication PMC4164354
Several values for one entry are separate records, joined by “and”; a condition that tells them apart may be missing. Identical values can stand only once.

Legend:
[1] = target: bovine lactoferrin purified from bovine colostrum as the high molecular weight biomacromolecular complex (HMW-bLf) (bovine); assay: SDS-PAGE and Western blot; 3 mg mL^-1 HMW-bLf in 50 mM Tris HCl pH 7.5 with 1 M NaCl, 1 day at 37°C; gradient SDS-PAGE (reducing gel), blot probed with goat anti-bLf
[2] = target: native monomeric bovine lactoferrin (NM-bLf) (bovine); assay: SDS-PAGE; NM-bLf stored at high concentration; denaturing SDS-PAGE; data not shown

stoichiometry N [1]	stoichiometry N [2]	Substance
2		bovine lactoferrin purified from bovine colostrum as the high molecular weight biomacromolecular complex (HMW-bLf) (natural protein)
	3 and 2	native monomeric bovine lactoferrin (NM-bLf) (natural protein)
